Laboratory results reported in patent publication US20240228648A1 (JIANGSU KANION PHARMACEUTICAL, published 2024).

B1: IgG418 full antibody (antibody, V domains shown)
VH: QVQLQQSGPGLVKPSQTLSLTCAISGGSVSSNSAAWNWIRQSPSRGLEWLGRTYYRSKWYNDYAVSVKSRITINPDTSKNQFSLQLNSVTPEDTAVYYCARDALAAAGTYGYYYYYGMDVWGQGTMVTVSS
VL: QSALTQPASVSGSPGQSITISCTGTSSDVGGYNYVSWYQQHPGKAPKLVIYEGTQRPSGVSSRFSGSKSGNTASLTISGLQAEDEADYYCSSYTSSSFYVFGTGTKLTVLG
notes: also called IgG418 WT; IgG418-WT
B2: afucosylated IgG418 (antibody, V domains shown)
VH: QVQLQQSGPGLVKPSQTLSLTCAISGGSVSSNSAAWNWIRQSPSRGLEWLGRTYYRSKWYNDYAVSVKSRITINPDTSKNQFSLQLNSVTPEDTAVYYCARDALAAAGTYGYYYYYGMDVWGQGTMVTVSS
VL: QSALTQPASVSGSPGQSITISCTGTSSDVGGYNYVSWYQQHPGKAPKLVIYEGTQRPSGVSSRFSGSKSGNTASLTISGLQAEDEADYYCSSYTSSSFYVFGTGTKLTVLG
modifications: afucosylated glycan (produced in FUT8 knockout CHO-K1 cells)

Assays:
[1] = target: T1, CD38 on the surface of Daudi cells (human, UniProt P28907 1-300); assay: cell-based or functional assay
[2] = target: T1, CD38 on the surface of Daudi cells; assay: flow cytometry on Daudi cells, anti-human IgG-Alexa647, fit in GraphPad Prism
Procedure: Daudi cells were washed twice with PBS and incubated for 1 hour on ice with serially diluted antibodies in FACS buffer (PBS containing 2% FBS) as indicated in table 2. Cells were washed three times with PBS and incubated with 1:200 diluted anti-human IgG-Alexa647 in FACS buffer for 30 min at 4° C. in darkness. After three times wash with PBS, cells were analyzed using flowcytometer.

[3] = target: T2, recombinant biotinylated CD38-avi protein (extracellular domain of human CD38) (human, UniProt P28907 43-300, biotinylated (avi tag)); assay: capture ELISA: antibody captured by anti-human Fc, biotinylated CD38-avi 0.5 ug/ml, fit in GraphPad Prism
T2 construct: Bought from ACRO biosystems; also called CD38 recombinant protein; not shown: avi tag
Procedure: After 6 washes, plate was incubated with 1:1000 diluted streptavidin-HRP (BD Bioscience) in PBS™ at RT for 30 min.

Binder | CDC IC50 on Daudi cells (ratio of live P1 cells, 7AAD flow cytometry) [1] | maximal ADCC activity on Daudi cells relative to Darzalex (Jurkat effector, luciferase) [1] | Kd [2] | Kd [3] | ADCC IC50 on Daudi cells relative to Darzalex (Jurkat effector, luciferase) [1]
B1 | 9.8 nM | 1.4 fold | 3.1 nM | 0.082 nM | –
B2 | – | 1.6 fold | – | – | ~10 fold
